{"source": "the RNAGym collection of RNA variant scans (doi:10.7554/elife.80360)", "parents": {"B1": {"name": "CPEB3 Ribozyme (parent)", "chain": "GGGGGCCACAGCAGAAGCGUUCACGUCGCGGCCCCUGUCAGAUUCUGGUGAAUCUGCGAAUUCUGCUGU"}}}
{"variants_of": "B1", "experiment": "self-cleavage, relative activity (ratio to wild type); higher = more cleavage; co-transcriptional"}
{"variant": "GGGGGCAACAGCAGACGCGUUCACGUCGCGGCCCCUGUCAGAUUCUGGUGAAUCUGCGAAUUCUGCUGU", "note": "[C7A A16C]", "self-cleavage": 0.0791}
{"variant": "GGGGGCAACAGCAGAGGCGUUCACGUCGCGGCCCCUGUCAGAUUCUGGUGAAUCUGCGAAUUCUGCUGU", "note": "[C7A A16G]", "self-cleavage": 0.383}
{"variant": "GGGGGUCACAGCAGAAGCGUUCACGUCGCGGCCCCUGUCAGAUUCUGGUGAAUCUGCGAAUUCUGCAGU", "note": "[C6U U67A]", "self-cleavage": 0.995}
{"variant": "GGGGGUCACAGCAGAAGCGUUCACGUCGCGGCCCCUGUCAGAUUCUGGUGAAUCUGCGAAUUCUGCCGU", "note": "[C6U U67C]", "self-cleavage": 1.02}
{"variant": "GGGGGCAACAGCAGAAGCGUUCACGUCGCGUCCCCUGUCAGAUUCUGGUGAAUCUGCGAAUUCUGCUGU", "note": "[C7A G31U]", "self-cleavage": 0.598}
{"variant": "GGGGGUCACAGCAGAAGCGUUCACGUCGCGGCCCCUGUCAGAUUCUGGGGAAUCUGCGAAUUCUGCUGU", "note": "[C6U U49G]", "self-cleavage": 0.956}
{"variant": "GGGGGUCACAGCAGAAGCGUUCACGUCGCGGCCCCUGUCAGAUUCUGGAGAAUCUGCGAAUUCUGCUGU", "note": "[C6U U49A]", "self-cleavage": 1}
{"variant": "GGGGGCAACAGCAGAAGCGUUCACGUCGCGGCCCCAGUCAGAUUCUGGUGAAUCUGCGAAUUCUGCUGU", "note": "[C7A U36A]", "self-cleavage": 0.127}
{"variant": "GGGGGCACCAGCAGAAGCGUUCACGUCGCGGCCCCUGUCAGAUUCUGGUGAAUCUGCGAAUUCUGCUGU", "note": "[C7A A8C]", "self-cleavage": 0.769}
{"variant": "GGGGGCAACAGCAGAAGCGUUCACGUCGCGGCCCCUGUCAGAUUCUGGUGAACCUGCGAAUUCUGCUGU", "note": "[C7A U53C]", "self-cleavage": 0.274}
{"variant": "GGGGGCAACAGCAGAAGCGUUCACGUCGCGGCCCCUGUCAGAUUCUGGUGAAACUGCGAAUUCUGCUGU", "note": "[C7A U53A]", "self-cleavage": 0.321}
{"variant": "GGGGGCAACAGCAGAAGCGUUCACGUCGCGGACCCUGUCAGAUUCUGGUGAAUCUGCGAAUUCUGCUGU", "note": "[C7A C32A]", "self-cleavage": 0.165}
{"variant": "GGGGGCAACAGCAGAAGCGUUCACGUCGCGGCCCCUGUCAGAUUCUGGUCAAUCUGCGAAUUCUGCUGU", "note": "[C7A G50C]", "self-cleavage": 0.545}
{"variant": "GGGGGCAACAGCAGAAGCGUUCACGUCGCGGCCCCUGUCAGAGUCUGGUGAAUCUGCGAAUUCUGCUGU", "note": "[C7A U43G]", "self-cleavage": 0.373}
{"variant": "GGGGGCAACAGCAGAAGCGUUCACGUCGCGGCCCCUGUCAGAAUCUGGUGAAUCUGCGAAUUCUGCUGU", "note": "[C7A U43A]", "self-cleavage": 0.266}
{"variant": "GGGGGCAACAGCCGAAGCGUUCACGUCGCGGCCCCUGUCAGAUUCUGGUGAAUCUGCGAAUUCUGCUGU", "note": "[C7A A13C]", "self-cleavage": 0.277}
{"variant": "GGGGGCAACAGCAGAAGCGUUCACGUCGCGGCCCCUGUCAGAUUCUGGUGUAUCUGCGAAUUCUGCUGU", "note": "[C7A A51U]", "self-cleavage": 0.402}
{"variant": "GGGGGCAACAGCAGAAGCGUUCACGUCGCGGCCCCUGUCAGAUUCUGGUGAAUCUGGGAAUUCUGCUGU", "note": "[C7A C57G]", "self-cleavage": 0.179}
{"variant": "GGGGGCAACUGCAGAAGCGUUCACGUCGCGGCCCCUGUCAGAUUCUGGUGAAUCUGCGAAUUCUGCUGU", "note": "[C7A A10U]", "self-cleavage": 0.912}
{"variant": "GGGGGCAACAGCAGAAGCGUUCACGUCGCGGCCCCUGUCAGAUUCUGGUGAAUCUGCGAAUUCUGCGGU", "note": "[C7A U67G]", "self-cleavage": 0.858}
{"variant": "GGGGGCAACAGCAGAAGCGUUCACGUCGCGGCCCCUGUCAGAUUCUGGUGAAUCUGCGAAUUCUGCAGU", "note": "[C7A U67A]", "self-cleavage": 0.884}
{"variant": "GGGGGCAACAGCAGAAGCGUUCACGUCGCGGCCCCUGUCAGAUUUUGGUGAAUCUGCGAAUUCUGCUGU", "note": "[C7A C45U]", "self-cleavage": 0.566}
{"variant": "GGGGGCAACAGCAGAAGCGUUCACGUCGCGGCCCCUGUCAGAUUAUGGUGAAUCUGCGAAUUCUGCUGU", "note": "[C7A C45A]", "self-cleavage": 0.485}
{"variant": "GGGGGCAACAGCAGAAGCGUUCACGUCGCGGCCCCUGUCGGAUUCUGGUGAAUCUGCGAAUUCUGCUGU", "note": "[C7A A40G]", "self-cleavage": 0.416}
{"variant": "GGGGGCAACAGCAGAAGCGUUCACGUCGCGGCCCCUGUCAGAUUCUGGUGAAUCUGCGAAUUCUGCUGC", "note": "[C7A U69C]", "self-cleavage": 1}
{"variant": "GGGGGCAACAGCAGAAGCGUUCACGUCGCGGCCCCUGUCAGAUUCAGGUGAAUCUGCGAAUUCUGCUGU", "note": "[C7A U46A]", "self-cleavage": 0.6}
{"variant": "GGGGGCAACAGCAGAAGCGUUCACGUCGCGGCCCCUGUCAGAUUCUGGUGAAUCUGCGAAUUCUGCUCU", "note": "[C7A G68C]", "self-cleavage": 0.923}
{"variant": "GGGGGCGACAGCAGAAGCGUUCACGUCGCGGCCCCUGUCCGAUUCUGGUGAAUCUGCGAAUUCUGCUGU", "note": "[C7G A40C]", "self-cleavage": 0.17}
{"variant": "GGGGGCGACAGCAGUAGCGUUCACGUCGCGGCCCCUGUCAGAUUCUGGUGAAUCUGCGAAUUCUGCUGU", "note": "[C7G A15U]", "self-cleavage": 0.0664}
{"variant": "GGGGGCAACAGCAGAAGCGUUCACGUCGCGGCCCCUGGCAGAUUCUGGUGAAUCUGCGAAUUCUGCUGU", "note": "[C7A U38G]", "self-cleavage": 0.0677}
{"variant": "GGGGGCGACAGCAGAAGCGUUCACGUCGCGGCCCCUGUCAGUUUCUGGUGAAUCUGCGAAUUCUGCUGU", "note": "[C7G A42U]", "self-cleavage": 0.303}
{"variant": "GGGGGCAACAGCAGAAGCGUUUACGUCGCGGCCCCUGUCAGAUUCUGGUGAAUCUGCGAAUUCUGCUGU", "note": "[C7A C22U]", "self-cleavage": 0.139}
{"variant": "GGGGGCAACAGCAGAAGCGUUAACGUCGCGGCCCCUGUCAGAUUCUGGUGAAUCUGCGAAUUCUGCUGU", "note": "[C7A C22A]", "self-cleavage": 0.0549}
{"variant": "GGGGGUCACAGCAGAAGCGUUCACGUCGCGGCCCCUGACAGAUUCUGGUGAAUCUGCGAAUUCUGCUGU", "note": "[C6U U38A]", "self-cleavage": 0.916}
{"variant": "GGGGGCAACAGUAGAAGCGUUCACGUCGCGGCCCCUGUCAGAUUCUGGUGAAUCUGCGAAUUCUGCUGU", "note": "[C7A C12U]", "self-cleavage": 0.592}
{"variant": "GGGGGCAACAGCAGAAGCGUUCACGUCGCGGCCCCUGUCAGAUUCUGGUGAAUCUGCGAAUGCUGCUGU", "note": "[C7A U62G]", "self-cleavage": 0.29}
{"variant": "GGGGGCAACAGCAGAAGGGUUCACGUCGCGGCCCCUGUCAGAUUCUGGUGAAUCUGCGAAUUCUGCUGU", "note": "[C7A C18G]", "self-cleavage": 0.159}
{"variant": "GGGGGCAACAGCAGAAGUGUUCACGUCGCGGCCCCUGUCAGAUUCUGGUGAAUCUGCGAAUUCUGCUGU", "note": "[C7A C18U]", "self-cleavage": 0.224}
{"variant": "GGGGGUCACAGCAGAAGCGUUCACGUCGCGGCCCCUGUCAGACUCUGGUGAAUCUGCGAAUUCUGCUGU", "note": "[C6U U43C]", "self-cleavage": 0.902}
